Assay [1] deals with human glucagon receptor (human), P47871. Kind of assay: SPA, displacement of [125I]-Gcg from hGcgR membranes, 0.1% bacitracin.
Assay [2] has as its target T1, human glucose-dependent insulinotropic polypeptide (GIP) receptor (human), P48546.
T1 chain: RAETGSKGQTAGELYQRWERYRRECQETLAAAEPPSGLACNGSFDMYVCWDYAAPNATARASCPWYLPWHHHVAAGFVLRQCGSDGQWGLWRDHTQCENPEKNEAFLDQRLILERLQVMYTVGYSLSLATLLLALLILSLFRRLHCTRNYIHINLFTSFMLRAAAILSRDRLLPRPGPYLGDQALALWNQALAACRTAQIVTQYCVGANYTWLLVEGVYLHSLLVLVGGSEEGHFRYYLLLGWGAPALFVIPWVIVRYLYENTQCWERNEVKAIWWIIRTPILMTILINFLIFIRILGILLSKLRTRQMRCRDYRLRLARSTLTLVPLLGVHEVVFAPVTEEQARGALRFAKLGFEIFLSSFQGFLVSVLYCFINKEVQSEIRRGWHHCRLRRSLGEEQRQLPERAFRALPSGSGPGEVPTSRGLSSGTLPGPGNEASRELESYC
Kind of assay: SPA, displacement of [125I]-GIP from hGIPR membranes, 0.1% bacitracin. On the technique in general: Loss of bound radioactivity is the signal in a displacement assay; it reports binding, not function.

In assay [3] the target is T2, human GLP-1 receptor (human), P43220.
T2 chain: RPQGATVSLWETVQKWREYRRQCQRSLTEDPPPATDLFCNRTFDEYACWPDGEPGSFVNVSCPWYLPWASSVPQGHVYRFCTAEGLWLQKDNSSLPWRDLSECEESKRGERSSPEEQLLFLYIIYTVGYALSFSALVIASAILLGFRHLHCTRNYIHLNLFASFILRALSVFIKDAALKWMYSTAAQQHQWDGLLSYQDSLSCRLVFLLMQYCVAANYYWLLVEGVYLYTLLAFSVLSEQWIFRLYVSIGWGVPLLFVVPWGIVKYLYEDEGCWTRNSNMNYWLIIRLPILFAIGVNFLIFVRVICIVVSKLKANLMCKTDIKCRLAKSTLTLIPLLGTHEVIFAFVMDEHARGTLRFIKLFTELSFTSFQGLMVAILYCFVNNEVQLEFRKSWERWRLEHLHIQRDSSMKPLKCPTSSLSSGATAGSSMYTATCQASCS
Kind of assay: SPA, displacement of [125I]-GLP-1 from hGLP-1R membranes, 0.1% bacitracin.

Starred links: 1 amine or outer side, 2 acyl side, 3 side chain; linkers in the order of their positions; H or OH if unused. Non-standard residues stand in square brackets, D forms with d. Groups on a side chain read outwards from the residue. No end group written: not given here. *: point of attachment. C20 diacid = O=C(O)CCCCCCCCCCCCCCCCCCC(=O)*; C18 diacid = O=C(O)CCCCCCCCCCCCCCCCC(=O)*; αMePhe(2-F) = C[C@](N)(Cc1ccccc1F)C(=O)O; γGlu = O=C(O)[C@H](CCC(=O)[*:2])N[*:1]; 4Pal = N[C@@H](Cc1ccncc1)C(=O)O; αMeL = CC(C)C[C@](C)(N)C(=O)O; Orn = NCCC[C@H](N)C(=O)O; AEEA = NCCOCCOCC(=O)O; Aib = CC(C)(N)C(=O)O

human glucagon receptor (human), P47871, sequence (P47871 26-477): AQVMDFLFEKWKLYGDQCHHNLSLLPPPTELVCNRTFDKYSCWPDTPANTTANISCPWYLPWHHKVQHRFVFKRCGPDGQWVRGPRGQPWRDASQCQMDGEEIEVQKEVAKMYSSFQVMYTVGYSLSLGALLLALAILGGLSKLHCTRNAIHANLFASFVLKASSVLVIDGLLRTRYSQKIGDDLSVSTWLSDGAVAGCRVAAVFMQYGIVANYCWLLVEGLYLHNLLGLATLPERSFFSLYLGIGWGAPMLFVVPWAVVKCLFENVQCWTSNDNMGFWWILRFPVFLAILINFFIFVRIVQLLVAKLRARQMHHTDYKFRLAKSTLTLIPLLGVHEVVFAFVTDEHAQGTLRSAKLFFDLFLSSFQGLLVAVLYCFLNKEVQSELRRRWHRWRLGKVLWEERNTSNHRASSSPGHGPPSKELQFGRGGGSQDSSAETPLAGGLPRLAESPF

B1: Example 4 (peptide)
peptide: Y[Aib]EGTFISDYSI[αMeL]LD[Orn]K([AEEA-AEEA-γGlu-C20 diacid])HQ[Aib]DFVE[4Pal]LLEAGPSSGAPPPS-NH2
modifications: N-terminus assumed
SMILES: CC[C@H](C)[C@H](NC(=O)[C@H](Cc1ccccc1)NC(=O)[C@@H](NC(=O)CNC(=O)[C@H](CCC(=O)O)NC(=O)C(C)(C)NC(=O)[C@@H](N)Cc1ccc(O)cc1)[C@@H](C)O)C(=O)N[C@@H](CO)C(=O)N[C@@H](CC(=O)O)C(=O)N[C@@H](Cc1ccc(O)cc1)C(=O)N[C@@H](CO)C(=O)N[C@H](C(=O)N[C@@](C)(CC(C)C)C(=O)N[C@@H](CC(C)C)C(=O)N[C@@H](CC(=O)O)C(=O)N[C@@H](CCCN)C(=O)N[C@@H](CCCCNC(=O)COCCOCCNC(=O)COCCOCCNC(=O)CC[C@H](NC(=O)CCCCCCCCCCCCCCCCCCC(=O)O)C(=O)O)C(=O)N[C@@H](Cc1c[nH]cn1)C(=O)N[C@@H](CCC(N)=O)C(=O)NC(C)(C)C(=O)N[C@@H](CC(=O)O)C(=O)N[C@@H](Cc1ccccc1)C(=O)N[C@H](C(=O)N[C@@H](CCC(=O)O)C(=O)N[C@@H](Cc1ccncc1)C(=O)N[C@@H](CC(C)C)C(=O)N[C@@H](CC(C)C)C(=O)N[C@@H](CCC(=O)O)C(=O)N[C@@H](C)C(=O)NCC(=O)N1CCC[C@H]1C(=O)N[C@@H](CO)C(=O)N[C@@H](CO)C(=O)NCC(=O)N[C@@H](C)C(=O)N1CCC[C@H]1C(=O)N1CCC[C@H]1C(=O)N1CCC[C@H]1C(=O)N[C@@H](CO)C(N)=O)C(C)C)[C@@H](C)CC
On to B1, for which the Ki amounted to 431 nM in assay [1], 0.062 nM in assay [2] and 423 nM in assay [3].

B2: Example 87 (peptide)
peptide: Y[Aib]EGTFISDYSI[αMeL]LD[Orn]K([AEEA-AEEA-γGlu-C18 diacid])HQ[Aib]DFVE[4Pal]LLEAGPSSGAPPPS-NH2
modifications: N-terminus assumed
SMILES: CC[C@H](C)[C@H](NC(=O)[C@H](Cc1ccccc1)NC(=O)[C@@H](NC(=O)CNC(=O)[C@H](CCC(=O)O)NC(=O)C(C)(C)NC(=O)[C@@H](N)Cc1ccc(O)cc1)[C@@H](C)O)C(=O)N[C@@H](CO)C(=O)N[C@@H](CC(=O)O)C(=O)N[C@@H](Cc1ccc(O)cc1)C(=O)N[C@@H](CO)C(=O)N[C@H](C(=O)N[C@@](C)(CC(C)C)C(=O)N[C@@H](CC(C)C)C(=O)N[C@@H](CC(=O)O)C(=O)N[C@@H](CCCN)C(=O)N[C@@H](CCCCNC(=O)COCCOCCNC(=O)COCCOCCNC(=O)CC[C@H](NC(=O)CCCCCCCCCCCCCCCCC(=O)O)C(=O)O)C(=O)N[C@@H](Cc1c[nH]cn1)C(=O)N[C@@H](CCC(N)=O)C(=O)NC(C)(C)C(=O)N[C@@H](CC(=O)O)C(=O)N[C@@H](Cc1ccccc1)C(=O)N[C@H](C(=O)N[C@@H](CCC(=O)O)C(=O)N[C@@H](Cc1ccncc1)C(=O)N[C@@H](CC(C)C)C(=O)N[C@@H](CC(C)C)C(=O)N[C@@H](CCC(=O)O)C(=O)N[C@@H](C)C(=O)NCC(=O)N1CCC[C@H]1C(=O)N[C@@H](CO)C(=O)N[C@@H](CO)C(=O)NCC(=O)N[C@@H](C)C(=O)N1CCC[C@H]1C(=O)N1CCC[C@H]1C(=O)N1CCC[C@H]1C(=O)N[C@@H](CO)C(N)=O)C(C)C)[C@@H](C)CC
Take B2: the Ki in assay [1] turned out to be 576 nM; in assay [2], 0.0538 nM; in assay [3], 849 nM.

B3: Example 6 (peptide)
peptide: Y[Aib]EGTFISDYSI[αMeL]LD[Orn]IHQ[Aib]DFVEYK([AEEA-AEEA-γGlu-C20 diacid])LEGGPSSGAPPPS-NH2
B3: the Ki in assay [1] worked out at 453 nM; in assay [2] it was 0.104 nM; in assay [3], 571 nM.

B4: Example 120 (peptide)
peptide: Y[Aib]EGT[αMePhe(2-F)]ISDYSILLDKIHQ[Aib]DFVE[4Pal]K([AEEA-AEEA-γGlu-C20 diacid])LEAGPSSGAPPPS-NH2
modifications: N-terminus assumed
SMILES: CC[C@H](C)[C@H](NC(=O)[C@H](CO)NC(=O)[C@H](Cc1ccc(O)cc1)NC(=O)[C@H](CC(=O)O)NC(=O)[C@H](CO)NC(=O)[C@@H](NC(=O)[C@](C)(Cc1ccccc1F)NC(=O)[C@@H](NC(=O)CNC(=O)[C@H](CCC(=O)O)NC(=O)C(C)(C)NC(=O)[C@@H](N)Cc1ccc(O)cc1)[C@@H](C)O)[C@@H](C)CC)C(=O)N[C@@H](CC(C)C)C(=O)N[C@@H](CC(C)C)C(=O)N[C@@H](CC(=O)O)C(=O)N[C@@H](CCCCN)C(=O)N[C@H](C(=O)N[C@@H](Cc1c[nH]cn1)C(=O)N[C@@H](CCC(N)=O)C(=O)NC(C)(C)C(=O)N[C@@H](CC(=O)O)C(=O)N[C@@H](Cc1ccccc1)C(=O)N[C@H](C(=O)N[C@@H](CCC(=O)O)C(=O)N[C@@H](Cc1ccncc1)C(=O)N[C@@H](CCCCNC(=O)COCCOCCNC(=O)COCCOCCNC(=O)CC[C@H](NC(=O)CCCCCCCCCCCCCCCCCCC(=O)O)C(=O)O)C(=O)N[C@@H](CC(C)C)C(=O)N[C@@H](CCC(=O)O)C(=O)N[C@@H](C)C(=O)NCC(=O)N1CCC[C@H]1C(=O)N[C@@H](CO)C(=O)N[C@@H](CO)C(=O)NCC(=O)N[C@@H](C)C(=O)N1CCC[C@H]1C(=O)N1CCC[C@H]1C(=O)N1CCC[C@H]1C(=O)N[C@@H](CO)C(N)=O)C(C)C)[C@@H](C)CC
In the case of B4, the Ki in assay [1] was found to be 575 nM; in assay [2], 0.171 nM.

B5: Example 115 (peptide)
peptide: Y[Aib]EGTFISDYSI[αMeL]LDKIRQ[Aib]DFVEYK([AEEA-AEEA-γGlu-C20 diacid])LEGGPSSGAPPPS-NH2
modifications: N-terminus assumed
SMILES: CC[C@H](C)[C@H](NC(=O)[C@H](CCCCN)NC(=O)[C@H](CC(=O)O)NC(=O)[C@H](CC(C)C)NC(=O)[C@](C)(CC(C)C)NC(=O)[C@@H](NC(=O)[C@H](CO)NC(=O)[C@H](Cc1ccc(O)cc1)NC(=O)[C@H](CC(=O)O)NC(=O)[C@H](CO)NC(=O)[C@@H](NC(=O)[C@H](Cc1ccccc1)NC(=O)[C@@H](NC(=O)CNC(=O)[C@H](CCC(=O)O)NC(=O)C(C)(C)NC(=O)[C@@H](N)Cc1ccc(O)cc1)[C@@H](C)O)[C@@H](C)CC)[C@@H](C)CC)C(=O)N[C@@H](CCCNC(=N)N)C(=O)N[C@@H](CCC(N)=O)C(=O)NC(C)(C)C(=O)N[C@@H](CC(=O)O)C(=O)N[C@@H](Cc1ccccc1)C(=O)N[C@H](C(=O)N[C@@H](CCC(=O)O)C(=O)N[C@@H](Cc1ccc(O)cc1)C(=O)N[C@@H](CCCCNC(=O)COCCOCCNC(=O)COCCOCCNC(=O)CC[C@H](NC(=O)CCCCCCCCCCCCCCCCCCC(=O)O)C(=O)O)C(=O)N[C@@H](CC(C)C)C(=O)N[C@@H](CCC(=O)O)C(=O)NCC(=O)NCC(=O)N1CCC[C@H]1C(=O)N[C@@H](CO)C(=O)N[C@@H](CO)C(=O)NCC(=O)N[C@@H](C)C(=O)N1CCC[C@H]1C(=O)N1CCC[C@H]1C(=O)N1CCC[C@H]1C(=O)N[C@@H](CO)C(N)=O)C(C)C
On to B5, for which the results for the Ki in assay [1] and in assay [2] were 373 nM and 0.0997 nM, respectively.

B6: Example 116 (peptide)
peptide: Y[Aib]EGTFISDYSI[αMeL]LD[Orn]IRQ[Aib]DFVEYK([AEEA-AEEA-γGlu-C20 diacid])LEGGPSSGAPPPS-NH2
modifications: N-terminus assumed
SMILES: CC[C@H](C)[C@H](NC(=O)[C@H](CCCN)NC(=O)[C@H](CC(=O)O)NC(=O)[C@H](CC(C)C)NC(=O)[C@](C)(CC(C)C)NC(=O)[C@@H](NC(=O)[C@H](CO)NC(=O)[C@H](Cc1ccc(O)cc1)NC(=O)[C@H](CC(=O)O)NC(=O)[C@H](CO)NC(=O)[C@@H](NC(=O)[C@H](Cc1ccccc1)NC(=O)[C@@H](NC(=O)CNC(=O)[C@H](CCC(=O)O)NC(=O)C(C)(C)NC(=O)[C@@H](N)Cc1ccc(O)cc1)[C@@H](C)O)[C@@H](C)CC)[C@@H](C)CC)C(=O)N[C@@H](CCCNC(=N)N)C(=O)N[C@@H](CCC(N)=O)C(=O)NC(C)(C)C(=O)N[C@@H](CC(=O)O)C(=O)N[C@@H](Cc1ccccc1)C(=O)N[C@H](C(=O)N[C@@H](CCC(=O)O)C(=O)N[C@@H](Cc1ccc(O)cc1)C(=O)N[C@@H](CCCCNC(=O)COCCOCCNC(=O)COCCOCCNC(=O)CC[C@H](NC(=O)CCCCCCCCCCCCCCCCCCC(=O)O)C(=O)O)C(=O)N[C@@H](CC(C)C)C(=O)N[C@@H](CCC(=O)O)C(=O)NCC(=O)NCC(=O)N1CCC[C@H]1C(=O)N[C@@H](CO)C(=O)N[C@@H](CO)C(=O)NCC(=O)N[C@@H](C)C(=O)N1CCC[C@H]1C(=O)N1CCC[C@H]1C(=O)N1CCC[C@H]1C(=O)N[C@@H](CO)C(N)=O)C(C)C
As to B6, the Ki worked out at 178 nM in assay [1] and 0.166 nM in assay [2].

As a reminder, the Ki is the dissociation constant of the complex between target and ligand, obtained from inhibition or displacement.

The values above are taken from patent publication US20210032299A1.
